Experimental data taken from the supplement of paper PMC9112550, “Optimization of the antimicrobial peptide Bac7 by deep mutational scanning” (BMC Biology, 2022).

tested on: Escherichia coli TOP10; test: shrunken log2 fold change of peptide-encoding DNA abundance (4.5 h post-induction vs induction); higher = less antimicrobial activity (less host growth inhibition); settings: time post-induction: 4.5 h; library: site-saturation at positions 5, 18, 19, 20
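Note: peptides expressed intracellularly from a pBAD plasmid library in pooled LB shake-flask culture, induced with 0.3% L-arabinose, DNA abundance read by NGS, three biological replicates, DESeq2 with apeglm shrinkage.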

In order of rising “shrunken log2 fold change” value:
1. RRIRCRPPRLPRPRPRPCSCPRP  -1.33
2. RRIRCRPPRLPRPRPRPFNCPRP  -1.32
3. RRIRARPPRLPRPRPRPYYNPRP  -0.97
4. RRIRCRPPRLPRPRPRPFYYPRP  -0.97
5. RRIRCRPPRLPRPRPRPFILPRP  -0.898
6. RRIRCRPPRLPRPRPRPDSVPRP  -0.894
7. RRIRCRPPRLPRPRPRPDTIPRP  -0.738
8. RRIRCRPPRLPRPRPRPFMTPRP  -0.737
9. RRIRCRPPRLPRPRPRPCTMPRP  -0.725
10. RRIRCRPPRLPRPRPRPDKYPRP  -0.717
11. RRIRARPPRLPRPRPRPYYFPRP  -0.701
12. RRIRCRPPRLPRPRPRPCMCPRP  -0.668
13. RRIRCRPPRLPRPRPRPCPDPRP  -0.612
14. RRIRCRPPRLPRPRPRPFLNPRP  -0.602
15. RRIRCRPPRLPRPRPRPFKIPRP  -0.6
16. RRIRCRPPRLPRPRPRPFKDPRP  -0.54
17. RRIRCRPPRLPRPRPRPFNAPRP  -0.521
18. RRIRCRPPRLPRPRPRPGNYPRP  -0.516
19. RRIRCRPPRLPRPRPRPCNMPRP  -0.502
20. RRIRCRPPRLPRPRPRPDHIPRP  -0.489
21. RRIRCRPPRLPRPRPRPGNNPRP  -0.47
22. RRIRCRPPRLPRPRPRPCTTPRP  -0.427
23. RRIRCRPPRLPRPRPRPCIKPRP  -0.426
24. RRIRCRPPRLPRPRPRPCLMPRP  -0.421
25. RRIRCRPPRLPRPRPRPASMPRP  -0.412
26. RRIRCRPPRLPRPRPRPGTKPRP  -0.404
27. RRIRCRPPRLPRPRPRPDTVPRP  -0.369
28. RRIRCRPPRLPRPRPRPGNMPRP  -0.368
29. RRIRCRPPRLPRPRPRPFCQPRP  -0.353
30. RRIRCRPPRLPRPRPRPASNPRP  -0.342
31. RRIRCRPPRLPRPRPRPFQVPRP  -0.335
32. RRIRCRPPRLPRPRPRPCNNPRP  -0.31
33. RRIRCRPPRLPRPRPRPAYVPRP  -0.288
34. RRIRCRPPRLPRPRPRPCHFPRP  -0.273
35. RRIRCRPPRLPRPRPRPFWKPRP  -0.271
36. RRIRCRPPRLPRPRPRPDLPPRP  -0.265
37. RRIRCRPPRLPRPRPRPFSIPRP  -0.261
38. RRIRCRPPRLPRPRPRPCLAPRP  -0.257
39. RRIRCRPPRLPRPRPRPDMPPRP  -0.253
40. RRIRCRPPRLPRPRPRPCMGPRP  -0.241
41. RRIRCRPPRLPRPRPRPGRIPRP  -0.231
42. RRIRCRPPRLPRPRPRPCFQPRP  -0.212
43. RRIRCRPPRLPRPRPRPDFVPRP  -0.196
44. RRIRCRPPRLPRPRPRPGISPRP  -0.195
45. RRIRCRPPRLPRPRPRPFCCPRP  -0.175
46. RRIRCRPPRLPRPRPRPCLTPRP  -0.17
47. RRIRCRPPRLPRPRPRPENRPRP  -0.168
48. RRIRCRPPRLPRPRPRPDFMPRP  -0.163
49. RRIRCRPPRLPRPRPRPFQTPRP  -0.153
50. RRIRCRPPRLPRPRPRPFFQPRP  -0.152
51. RRIRCRPPRLPRPRPRPAHNPRP  -0.151
52. RRIRCRPPRLPRPRPRPAFYPRP  -0.146
53. RRIRCRPPRLPRPRPRPDQNPRP  -0.138
54. RRIRCRPPRLPRPRPRPGKNPRP  -0.133
55. RRIRCRPPRLPRPRPRPDNDPRP  -0.124
56. RRIRCRPPRLPRPRPRPEDIPRP  -0.12
57. RRIRCRPPRLPRPRPRPEHHPRP  -0.114
58. RRIRCRPPRLPRPRPRPDHRPRP  -0.106
59. RRIRCRPPRLPRPRPRPAMKPRP  -0.104
60. RRIRCRPPRLPRPRPRPAHKPRP  -0.0944
61. RRIRCRPPRLPRPRPRPDRIPRP  -0.0911
62. RRIRCRPPRLPRPRPRPAEIPRP  -0.0903
63. RRIRCRPPRLPRPRPRPFWQPRP  -0.0799
64. RRIRCRPPRLPRPRPRPCSDPRP  -0.0728
65. RRIRCRPPRLPRPRPRPFDLPRP  -0.0696
66. RRIRCRPPRLPRPRPRPAYQPRP  -0.0687
67. RRIRCRPPRLPRPRPRPEKDPRP  -0.0681
68. RRIRCRPPRLPRPRPRPGKEPRP  -0.0657
69. RRIRCRPPRLPRPRPRPCERPRP  -0.0644
70. RRIRCRPPRLPRPRPRPENPPRP  -0.0628
71. RRIRCRPPRLPRPRPRPCESPRP  -0.0611
72. RRIRCRPPRLPRPRPRPDVCPRP  -0.0548
73. RRIRCRPPRLPRPRPRPGSDPRP  -0.0369
74. RRIRCRPPRLPRPRPRPENQPRP  -0.0366
75. RRIRCRPPRLPRPRPRPCKQPRP  -0.0357
76. RRIRCRPPRLPRPRPRPAETPRP  -0.035
77. RRIRCRPPRLPRPRPRPDVRPRP  -0.0317
78. RRIRCRPPRLPRPRPRPESCPRP  -0.0297
79. RRIRCRPPRLPRPRPRPFENPRP  -0.0274
80. RRIRCRPPRLPRPRPRPADSPRP  -0.0251
81. RRIRCRPPRLPRPRPRPFEWPRP  -0.0143
82. RRIRCRPPRLPRPRPRPALEPRP  -0.00844
83. RRIRCRPPRLPRPRPRPDQTPRP  -0.00778
84. RRIRCRPPRLPRPRPRPDEQPRP  -0.00573
85. RRIRCRPPRLPRPRPRPCNGPRP  -0.00386
86. RRIRCRPPRLPRPRPRPGVFPRP  -0.00263
87. RRIRCRPPRLPRPRPRPEKHPRP  0.00607
88. RRIRCRPPRLPRPRPRPDRGPRP  0.0229
89. RRIRCRPPRLPRPRPRPCQIPRP  0.0258
90. RRIRCRPPRLPRPRPRPDAVPRP  0.0365
91. RRIRCRPPRLPRPRPRPDCMPRP  0.0384
92. RRIRCRPPRLPRPRPRPDQDPRP  0.0433
93. RRIRCRPPRLPRPRPRPDQEPRP  0.0455
94. RRIRCRPPRLPRPRPRPFMSPRP  0.0579
95. RRIRCRPPRLPRPRPRPEHQPRP  0.0614
96. RRIRCRPPRLPRPRPRPCDGPRP  0.0624
97. RRIRCRPPRLPRPRPRPEKAPRP  0.0655
98. RRIRCRPPRLPRPRPRPCEIPRP  0.0656
99. RRIRCRPPRLPRPRPRPANEPRP  0.0681
100. RRIRCRPPRLPRPRPRPFEFPRP  0.0705
101. RRIRCRPPRLPRPRPRPDCSPRP  0.072
102. RRIRCRPPRLPRPRPRPGQEPRP  0.094
103. RRIRCRPPRLPRPRPRPCDHPRP  0.0959
104. RRIRCRPPRLPRPRPRPDKGPRP  0.0974
105. RRIRCRPPRLPRPRPRPAPYPRP  0.0992
106. RRIRCRPPRLPRPRPRPGSVPRP  0.102
107. RRIRCRPPRLPRPRPRPGESPRP  0.107
108. RRIRCRPPRLPRPRPRPGGPPRP  0.108
109. RRIRCRPPRLPRPRPRPATVPRP  0.141
110. RRIRCRPPRLPRPRPRPCVAPRP  0.178
111. RRIRCRPPRLPRPRPRPFQGPRP  0.203
112. RRIRCRPPRLPRPRPRPASCPRP  0.209
113. RRIRCRPPRLPRPRPRPELGPRP  0.211
114. RRIRCRPPRLPRPRPRPGGMPRP  0.215
115. RRIRCRPPRLPRPRPRPELYPRP  0.221
116. RRIRCRPPRLPRPRPRPDDQPRP  0.23
117. RRIRCRPPRLPRPRPRPGCVPRP  0.248
118. RRIRCRPPRLPRPRPRPALSPRP  0.282
119. RRIRCRPPRLPRPRPRPGIGPRP  0.295
120. RRIRCRPPRLPRPRPRPGPNPRP  0.296
121. RRIRCRPPRLPRPRPRPAVCPRP  0.297
122. RRIRCRPPRLPRPRPRPGPKPRP  0.3
123. RRIRCRPPRLPRPRPRPAWLPRP  0.303
124. RRIRCRPPRLPRPRPRPEVVPRP  0.332
125. RRIRCRPPRLPRPRPRPALFPRP  0.344
126. RRIRCRPPRLPRPRPRPECDPRP  0.346
127. RRIRCRPPRLPRPRPRPGPDPRP  0.359
128. RRIRCRPPRLPRPRPRPALGPRP  0.38
129. RRIRCRPPRLPRPRPRPEGHPRP  0.38
130. RRIRCRPPRLPRPRPRPACDPRP  0.389
131. RRIRCRPPRLPRPRPRPGGRPRP  0.404
132. RRIRCRPPRLPRPRPRPGGVPRP  0.42
133. RRIRCRPPRLPRPRPRPGSWPRP  0.439
134. RRIRCRPPRLPRPRPRPGVGPRP  0.455
135. RRIRCRPPRLPRPRPRPEGYPRP  0.461
136. RRIRCRPPRLPRPRPRPGGAPRP  0.462
137. RRIRCRPPRLPRPRPRPEPQPRP  0.468
138. RRIRCRPPRLPRPRPRPGPEPRP  0.473
139. RRIRCRPPRLPRPRPRPCAAPRP  0.514
140. RRIRCRPPRLPRPRPRPDCAPRP  0.515
141. RRIRCRPPRLPRPRPRPEMTPRP  0.517
142. RRIRCRPPRLPRPRPRPEMAPRP  0.532
143. RRIRCRPPRLPRPRPRPAWRPRP  0.575
144. RRIRCRPPRLPRPRPRPEQPPRP  0.581
145. RRIRCRPPRLPRPRPRPEAEPRP  0.656
146. RRIRCRPPRLPRPRPRPEAPPRP  0.755
147. RRIRCRPPRLPRPRPRPEDPPRP  0.779
148. RRIRCRPPRLPRPRPRPERWPRP  0.877
149. RRIRCRPPRLPRPRPRPGAAPRP  0.956
150. RRIRCRPPRLPRPRPRPCDLPRP  3.04
